In publication PMC4552487:

Molecular target: Parkin 80-465 (UniProt O60260)
Assay: AlphaScreen, competition with GST-Ubl (1-76)
Settings: reference: unphosphorylated Ubl (1-76); sites S65

binding against the reference: weaker
Substance: Parkin Ubl domain, 1-76 (from UniProt O60260) Ubl (1-76) phosphorylated by TcPINK1, Mono-Q purified
